For one substance, stoichiometry N results are on record in article PMC9280192.

This assay addresses IRSp53 (insulin receptor substrate protein 53), full-length. Kind of assay: SEC-MALS.

With “IRSp53 (insulin receptor substrate protein 53), full-length (natural protein)”, the stoichiometry N was 2.
